This is an account of results in patent publication US20240075134A1 (Seagen, published 2024).

In assay [1] the target is T1, human FcγRIIIa, low affinity (158F) form, on CHO cells (human, UniProt P08637 17-254).
T1 construct: whole, on cells; Allotype with F at position 158 as printed; also called FcγRIIIa 158F
Put plainly: flow cytometry, biotinylated antibody on CHO cells expressing FcγRIIIa 158F. In general terms: In flow cytometry, cells or beads pass a laser one at a time.

The target in assay [2] is T2, human FcγRIIIa, high affinity (158V) form, on CHO cells (human, UniProt P08637 17-254).
T2 construct: whole, on cells; Position 158 probably counts on the mature protein; also called FcγRIIIa 158V
T2 sequence (P08637 17-254 F176V): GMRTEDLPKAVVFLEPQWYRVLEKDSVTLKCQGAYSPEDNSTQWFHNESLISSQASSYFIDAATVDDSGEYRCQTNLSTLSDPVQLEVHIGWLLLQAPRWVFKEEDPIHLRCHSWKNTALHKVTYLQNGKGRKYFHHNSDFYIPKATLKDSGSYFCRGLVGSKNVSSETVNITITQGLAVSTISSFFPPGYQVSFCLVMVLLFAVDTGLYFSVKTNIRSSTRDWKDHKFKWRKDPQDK
The assay can be described thus: flow cytometry, biotinylated antibody on CHO cells expressing FcγRIIIa 158V.

The target in a further assay is T3, murine CD40 (murine, UniProt P27512 20-193, limits assumed).
T3 sequence (looked up): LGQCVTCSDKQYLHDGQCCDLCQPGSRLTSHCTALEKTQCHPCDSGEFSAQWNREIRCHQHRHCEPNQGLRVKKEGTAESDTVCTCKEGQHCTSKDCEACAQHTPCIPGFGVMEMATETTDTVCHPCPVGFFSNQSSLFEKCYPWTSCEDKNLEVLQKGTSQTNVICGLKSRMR
Put plainly: not described.

Assay [3] concerns the target T4, human CD40 on the surface of PBMCs (human, UniProt P25942 21-277). Put plainly: cell-based or functional assay.
Assay [4] concerns the target T4, human CD40 on the surface of PBMCs. Put plainly: cell-based or functional assay. The source holds these as a separate data set.

T4 sequence (P25942 21-277): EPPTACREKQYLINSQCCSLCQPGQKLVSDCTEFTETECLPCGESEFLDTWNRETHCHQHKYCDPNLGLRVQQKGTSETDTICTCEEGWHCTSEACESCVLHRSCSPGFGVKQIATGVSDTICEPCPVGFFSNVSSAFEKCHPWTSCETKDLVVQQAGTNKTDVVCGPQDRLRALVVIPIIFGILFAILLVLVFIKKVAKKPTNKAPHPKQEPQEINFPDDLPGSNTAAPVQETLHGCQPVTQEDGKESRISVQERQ
T1 sequence (P08637 17-254): as the sequence (P08637 17-254 F176V) above, with V160F counted along it

B1: SEA-CD40 (non-fucosylated humanized S2C6 antibody) (antibody, human IgG1, kappa)
heavy: not shown
light: DIQMTQSPSSLSASVGDRVTITCRSSQSLVHSNGNTFLHWYQQKPGKAPKLLIYTVSNRFSGVPSRFSGSGSGTDFTLTISSLQPEDFATYFCSQTTHVPWTFGQGTKVEIKRTVAAPSVFIFPPSDEQLKSGTASVVCLLNNFYPREAKVQWKVDNALQSGNSQESVTEQDSKDSTYSLSSTLTLSKADYEKHKVYACEVTHQGLSSPVTKSFNRGEC
notes: also called SEA40; non-fucosylated hS2C6; copies: 2 + 2
In general, Kd refers to the constant that tells how readily two partners part at equilibrium. Read a high Kd as weaker binding. On to B1, for which binding in assay [1] was put at a Kd of 27.5 nM. The same molecule yielded a dissociation constant (Kd) in assay [2] of 5.2 nM. The binding result in the assay with murine CD40 was “no binding”. In addition, in assay [3], the “MHCII surface expression on PBMCs, ratio to SEA-h00; SEA-CD40 0.0001 µg/mL, 6 hrs” value is 0.85 fold; the “MHCII surface expression on PBMCs, ratio to SEA-h00; SEA-CD40 0.0001 µg/mL, 24 hrs” value came to 1.05 fold; the “MHCII surface expression on PBMCs, ratio to SEA-h00; SEA-CD40 0.0001 µg/mL, 48 hrs” value came to 0.99 fold; the “MHCII surface expression on PBMCs, ratio to SEA-h00; SEA-CD40 0.001 µg/mL, 6 hrs” value was 1 fold. Besides, in assay [3], the “MHCII surface expression on PBMCs, ratio to SEA-h00; SEA-CD40 0.001 µg/mL, 24 hrs” value worked out at 1.07 fold; the “MHCII surface expression on PBMCs, ratio to SEA-h00; SEA-CD40 0.001 µg/mL, 48 hrs” value was 1.1 fold; the “MHCII surface expression on PBMCs, ratio to SEA-h00; SEA-CD40 0.01 µg/mL, 6 hrs” value came to 0.9 fold; the “MHCII surface expression on PBMCs, ratio to SEA-h00; SEA-CD40 0.01 µg/mL, 24 hrs” value worked out at 1.21 fold. For the same molecule, in assay [3], the “MHCII surface expression on PBMCs, ratio to SEA-h00; SEA-CD40 0.01 µg/mL, 48 hrs” value worked out at 1.38 fold; the “MHCII surface expression on PBMCs, ratio to SEA-h00; SEA-CD40 0.1 µg/mL, 6 hrs” value turned out to be 0.9 fold; the “MHCII surface expression on PBMCs, ratio to SEA-h00; SEA-CD40 0.1 µg/mL, 24 hrs” value came out at 1.19 fold; the “MHCII surface expression on PBMCs, ratio to SEA-h00; SEA-CD40 0.1 µg/mL, 48 hrs” value turned out to be 1.5 fold. For the same molecule, in assay [3], the “MHCII surface expression on PBMCs, ratio to SEA-h00; SEA-CD40 1 µg/mL, 6 hrs” value stood at 1.14 fold; the “MHCII surface expression on PBMCs, ratio to SEA-h00; SEA-CD40 1 µg/mL, 24 hrs” value turned out to be 1.76 fold; the “MHCII surface expression on PBMCs, ratio to SEA-h00; SEA-CD40 1 µg/mL, 48 hrs” value came to 1.57 fold; the “MHCII surface expression on PBMCs, ratio to SEA-h00; SEA-CD40 10 µg/mL, 6 hrs” value came to 1.1 fold. In addition, in assay [3], the “MHCII surface expression on PBMCs, ratio to SEA-h00; SEA-CD40 10 µg/mL, 24 hrs” value was determined as 1.62 fold; the “MHCII surface expression on PBMCs, ratio to SEA-h00; SEA-CD40 10 µg/mL, 48 hrs” value amounted to 2.1 fold; the “MHCII surface expression on PBMCs, ratio to SEA-h00; SEA-CD40 100 µg/mL, 6 hrs” value came out at 1.13 fold; the “MHCII surface expression on PBMCs, ratio to SEA-h00; SEA-CD40 100 µg/mL, 24 hrs” value came to 1.64 fold. Also, in assay [3], the “MHCII surface expression on PBMCs, ratio to SEA-h00; SEA-CD40 100 µg/mL, 48 hrs” value was found to be 2.1 fold. Besides, in assay [4], the “EC50 of CD86 upregulation on PBMCs (24 hr)” value was 0.14 µg/mL, the “EC50 of MHCI upregulation on PBMCs (48 hr)” value amounted to 0.011 µg/mL and the “EC50 of MHCII upregulation on PBMCs (24 hr)” value turned out to be 0.41 µg/mL.

B2: dacetuzumab (fucosylated humanized S2C6) (antibody, human IgG1, kappa)
heavy: not shown
light: B1 light
notes: also called SGN-40; SGN40; copies: 2 + 2
For B2, the Kd stood at 303 nM in assay [1] and 37.9 nM in assay [2].
